Laboratory results taken from article PMC3478719.

Biological target: SIF binding receptor from human spermatozoa (human (endogenous in spermatozoa))
Experiment: ITC; microreaction calorimeter, titration mode; 1.5 mL receptor (200 μg mL^-1) in the vial, ligand (500 μg mL^-1) in a 250 μL syringe; PBS

Q: Which Ka does the source give for “Sperm immobilization factor (SIF) from Staphylococcus aureus (natural protein)” here?
A: The Ka was 1350 M⁻¹.

Q: And the dH?
A: The dH was -11.9 kJ/mol.

Q: And the heat released (ligand 7.5 × 10^-4 μM, receptor 4.8 × 10^-3 μM)?
A: The heat released (ligand 7.5 × 10^-4 μM, receptor 4.8 × 10^-3 μM) was 9.7 mJ.

Q: And the heat released (ligand 15.0 × 10^-4 μM, receptor 4.8 × 10^-3 μM)?
A: The heat released (ligand 15.0 × 10^-4 μM, receptor 4.8 × 10^-3 μM) was 9 mJ.

Q: And the heat released (ligand 22.5 × 10^-4 μM, receptor 4.8 × 10^-3 μM)?
A: The heat released (ligand 22.5 × 10^-4 μM, receptor 4.8 × 10^-3 μM) was 8.6 mJ.

Q: What about the heat released (ligand 30.0 × 10^-4 μM, receptor 4.8 × 10^-3 μM) of the same substance?
A: The heat released (ligand 30.0 × 10^-4 μM, receptor 4.8 × 10^-3 μM) was 5.6 mJ.

Q: What about the heat released (ligand 37.5 × 10^-4 μM, receptor 4.8 × 10^-3 μM) of the same substance?
A: The heat released (ligand 37.5 × 10^-4 μM, receptor 4.8 × 10^-3 μM) was 2.3 mJ.

Q: What about the heat released (ligand 45.0 × 10^-4 μM, receptor 4.8 × 10^-3 μM) of the same substance?
A: The heat released (ligand 45.0 × 10^-4 μM, receptor 4.8 × 10^-3 μM) was 2.1 mJ.

Q: What about the heat released (ligand 52.5 × 10^-4 μM, receptor 4.8 × 10^-3 μM) of the same substance?
A: Its heat released (ligand 52.5 × 10^-4 μM, receptor 4.8 × 10^-3 μM) is 2 mJ.
